Experimental data reported in article PMC8022333 (The FEBS journal, 2018).

Target: the molecule itself
Test: crystal structure

B1: vimentin coil 1B (residues 153–238) (domain or fragment)
chain: not shown
stoichiometry N: 8
